Experimental data taken from PMC4140749, “Identification of a Novel Hypocholesterolemic Protein, Major Royal Jelly Protein 1, Derived from Royal Jelly” (PLoS ONE, 2014).

Target: the molecule itself
Assay: SEC; 10-kDa cut-off royal jelly applied to HiLoad 26/60 Superdex 200 p.g.; 150 mM NaCl, 20 mM phosphate buffer pH 7.5; molecular weight calibrated with standard proteins; peak resolved by 15% SDS-PAGE

B1: major royal jelly protein 1 (natural protein, Apis mellifera, UniProt O18330 20-432, looked up)
chain: NILRGESLNKSLPILHEWKFFDYDFGSDERRQDAILSGEYDYKNNYPSDIDQWHDKIFVTMLRYNGVPSSLNVISKKVGDGGPLLQPYPDWSFAKYDDCSGIVSASKLAIDKCDRLWVLDSGLVNNTQPMCSPKLLTFDLTTSQLLKQVEIPHDVAVNATTGKGRLSSLAVQSLDCNTNSDTMVYIADEKGEGLIVYHNSDDSFHRLTSNTFDYDPKFTKMTIDGESYTAQDGISGMALSPMTNNLYYSPVASTSLYYVNTEQFRTSDYQQNDIHYEGVQNILDTQSSAKVVSKSGVLFFGLVGDSALGCWNEHRTLERHNIRTVAQSDETLQMIASMKIKEALPHVPIFDRYINREYILVLSNKMQKMVNNDFNFDDVNFRIMNANVNELILNTRCENPDNDRTPFKISIHL
notes: Major royal jelly protein 1 (MRJP1), Apis mellifera; 55 kDa on SDS-PAGE; Native protein isolated from royal jelly and identified by MALDI-TOF/MS; The introduction calls MRJPs glycoproteins; also called MRJP1; major RJ protein 1; source: purified from royal jelly (10-kDa cut-off RJ, size-exclusion chromatography on Superdex 200)
  stoichiometry N: ~5
